Measurements: IntAct's records for PubMed 26647308

B1: Forkhead box protein P1 (Homo sapiens), Q9H334 (parent)
chain: MMQESGTETKSNGSAIQNGSGGSNHLLECGGLREGRSNGETPAVDIGAADLAHAQQQQQQALQVARQLLLQQQQQQQVSGLKSPKRNDKQPALQVPVSVAMMTPQVITPQQMQQILQQQVLSPQQLQVLLQQQQALMLQQQQLQEFYKKQQEQLQLQLLQQQHAGKQPKEQQQVATQQLAFQQQLLQMQQLQQQHLLSLQRQGLLTIQPGQPALPLQPLAQGMIPTELQQLWKEVTSAHTAEETTGNNHSSLDLTTTCVSSSAPSKTSLIMNPHASTNGQLSVHTPKRESLSHEEHPHSHPLYGHGVCKWPGCEAVCEDFQSFLKHLNSEHALDDRSTAQCRVQMQVVQQLELQLAKDKERLQAMMTHLHVKSTEPKAAPQPLNLVSSVTLSKSASEASPQSLPHTPTTPTAPLTPVTQGPSVITTTSMHTVGPIRRRYSDKYNVPISSADIAQNQEFYKNAEVRPPFTYASLIRQAILESPEKQLTLNEIYNWFTRMFAYFRRNAATWKNAVRHNLSLHKCFVRVENVKGAVWTVDEVEFQKRRPQKISGNPSLIKNMQSSHAYCTPLNAALQASMAENSIPLYTTASMGNPTLGNLASAIREELNGAMEHTNSNESDSSPGRSPMQAVHPVHVKEEPLDPEEAEGPLSLVTTANHSPDFDHDRDYEDEPVNEDME

Variants of: B1
Conditions: with foxp2_human FOXP2, O15409
Chain of foxp2_human FOXP2, O15409 (O15409 whole entry): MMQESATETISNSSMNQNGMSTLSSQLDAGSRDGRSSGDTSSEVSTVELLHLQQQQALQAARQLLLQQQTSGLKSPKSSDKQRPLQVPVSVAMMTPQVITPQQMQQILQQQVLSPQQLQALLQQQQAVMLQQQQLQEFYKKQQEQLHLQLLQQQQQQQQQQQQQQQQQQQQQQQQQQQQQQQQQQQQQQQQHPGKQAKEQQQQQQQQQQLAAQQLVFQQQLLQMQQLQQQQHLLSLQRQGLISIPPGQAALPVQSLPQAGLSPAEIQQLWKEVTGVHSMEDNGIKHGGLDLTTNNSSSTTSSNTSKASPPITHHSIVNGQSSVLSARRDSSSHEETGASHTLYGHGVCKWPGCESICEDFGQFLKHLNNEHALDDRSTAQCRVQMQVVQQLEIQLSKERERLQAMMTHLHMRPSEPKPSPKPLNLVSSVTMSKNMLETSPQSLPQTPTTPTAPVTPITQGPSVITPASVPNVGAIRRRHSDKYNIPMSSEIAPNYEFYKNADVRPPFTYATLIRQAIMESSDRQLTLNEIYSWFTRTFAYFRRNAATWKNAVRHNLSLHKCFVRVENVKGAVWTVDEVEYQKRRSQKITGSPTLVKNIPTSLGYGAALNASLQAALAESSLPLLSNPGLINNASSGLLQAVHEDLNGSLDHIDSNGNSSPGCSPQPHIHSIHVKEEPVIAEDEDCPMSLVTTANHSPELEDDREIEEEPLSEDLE

| Variant | effect of a mutation on the interaction |
| --- | --- |
| R465G | with no effect |
| N597T | with no effect |
| P215A | decreasing interaction strength |
| N570S | with no effect |
| R514C | decreasing interaction strength |
| W534R | decreasing interaction strength |
| I107T | disrupting interaction strength |

Variants of: B1
Conditions: with foxp2_human FOXP2, O15409
Remark: another data set of the same source

| Variant | effect of a mutation on the interaction |
| --- | --- |
| R465G | decreasing interaction strength |
| W534R | disrupting interaction strength |
